Like-named read-outs stand apart in the source and are kept apart here.
Assays:
[1] = target: MS2 coat protein (literature) (Enterobacteria phage MS2) (UniProt P03612); conditions: CITED Lowary and Uhlenbeck 1987, cited from earlier work
MS2 coat protein (MCP) = MS2 coat protein (MCP) (Enterobacteria phage MS2, UniProt P03612 P03612:2-130); assay: EMSA; sub-nanomolar; exact value only in figure; about 10-fold tighter than wt (p109); 10 mM Tris, 100 mM NaCl, 0.1 mM EDTA, tRNA, heparin, room temperature, 3 h; conditions: tags: MBP-TEV N-terminal, C-terminal 6xHis (plasmid pET336, E. coli Rosetta2); chain copies: 2 (inferred); label: 5' fluorescein; hairpin
Procedure: Design of a new MBS-MCP system faithfully recapitulating mRNA kinetics —We considered four variables that could influence the ability of the MS2 array to block degradation by […] when MCP is bound. First, the loop sequence can affect the affinity of MCP for the stem. […] The current MBSV5 and MBSORF versions have a U to C change in position −5 of all loops (FIG. 2A-C). We compared the high affinity C-variant loops to the wt-loops (FIG. 2D). The affinities of the MBS-MCP binding were analyzed by electrophoretic mobility shift assay (EMSA). As a control, we used the original loop sequence from the bacteriophage with a U or a C at position −5. In addition, C or U variants were generated for two MS2 loops (Loop1 and Loop2), each of them with a different stem sequence (FIG. 2D). Apparent equilibrium dissociation constants (Kd) were extracted from plots of MCP bound versus free (FIG. 2E-G).
Complexes were monitored and quantified by EMSA as previously described (Chao et al., 2008). In brief, 100 pM RNAs were incubated at room temperature for three hours with 2 fold dilutions of MCP in 10 mM Tris, 100 mM NaCl, 0.1 mM EDTA, 0.01 mg/mL tRNA, […] heparin and 0.01% IGEPAL CA630. Complexes were then run using 5% native PAGE in 0.5×TBE and visualized using the Typhoon 9400 variable mode laser scanner (GE Healthcare).

Chain of MS2 coat protein (literature) (Enterobacteria phage MS2) (P03612 2-130): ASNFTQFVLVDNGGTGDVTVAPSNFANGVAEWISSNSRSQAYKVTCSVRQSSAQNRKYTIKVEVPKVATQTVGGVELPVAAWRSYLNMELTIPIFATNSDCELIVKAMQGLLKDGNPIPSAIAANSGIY
Chain of MS2 coat protein (MCP) (P03612 2-130, one chain of several): as the sequence (P03612 2-130) above

MS2 C-variant operator loop (literature)
Kd ([1]; dissociation about 90 times slower than wt): 1 nM

MS2 wt operator loop (literature)
Kd ([1]; Valegard et al.): 10 nM

B1: MS2 C-variant stem loop (ssRNA)
RNA: ACAUGAGGAUCACCCAUGU
Kd (MS2 coat protein (MCP)): < 1 nM

From patent US20210139964, “RNA TAGGING SYSTEM FOR VISUALIZATION OF SINGLE MRNA MOLECULES” (ALBERT EINSTEIN COLLEGE OF MEDICINE, published 2021)
